Measured values taken from patent US20230383012A1 (published 2023).
Changes are numbered by the printed parent chain.

Experiments:
[1] = target: human CD28 antigen (human, UniProt P10747 19-152); experiment: Octet; VHVL
[2] = target: XPL2-BC-1G10-hIgG1; experiment: Biacore
[3] = target: XPL2-BC-12A11-hIgG1; experiment: Biacore
[4] = target: XPL2-BC-12B2-hIgG1; experiment: Biacore
[5] = target: XPL2-BC-8G2-hIgG1; experiment: Biacore
[6] = target: XPL2-BC-10H5-hIgG1; experiment: Biacore
[7] = target: XPL2-BC-8G5-hIgG1; experiment: Biacore
[8] = target: XPL2-BC-6H10-hIgG1; experiment: Biacore
[9] = target: XPL2-BC-8H11-hIgG1; experiment: Biacore
[10] = target: XPL2-BC-7D1-hIgG1; experiment: Biacore
[11] = target: XPL2-BC-13G1-hIgG1; experiment: Biacore
[12] = target: XPL2-BC-5B6-hIgG1; experiment: Biacore
[13] = target: XPL2-BC-12B9-hIgG1; experiment: Biacore
[14] = target: XPL2-BC-5C11-hIgG1; experiment: Biacore
[15] = target: XPL2-BC-9H4-hIgG1; experiment: Biacore
[16] = target: XPL2-BC-12B12-hIgG1; experiment: Biacore
[17] = target: XPL2-BC-5F2-hIgG1; experiment: Biacore
[18] = target: XPL2-BC-8H8-hIgG1; experiment: Biacore
[19] = target: XPL2-BC-8F4-hIgG1; experiment: Biacore
[20] = target: XPL2-BC-12A6-hIgG1; experiment: Biacore
[21] = target: XPL2-BC-3A9-hIgG1; experiment: Biacore
[22] = target: XPL2-BC-7B10-hIgG1; experiment: Biacore
[23] = target: XPL2-BC-7E9-hIgG1; experiment: Biacore
[24] = target: XPL2-BC-1E12-hIgG1; experiment: Biacore
[25] = target: XPL2-BC-5F1-hIgG1; experiment: Biacore
[26] = target: XPL2-BC-16G11-hIgG1; experiment: Biacore
[27] = target: XPL2-BC-12B7-hIgG1; experiment: Biacore
[28] = target: XPL2-BC-7D3-hIgG1; experiment: Biacore
[29] = target: Cyno PDL1; experiment: Biacore; EXP1
[30] = target: Human PDL1 (human, UniProt Q9NZQ7 19-238); experiment: Biacore; EXP1

B1: H1.1_L1.71 (antibody, V domains shown)
VH: EVQLLESGGGLVQPGGSLRLSCAASGFTFPSRDMSWVRQAPGKRLEWVSTISSGGSFTHYPDSVKGRFTISRDNSKNTLYLQMNSLRAEDTAVYYCVRRSGDWYFDVWGAGTTVTVSS
VL: EIVLTQSPGTLSLSPGERATLSCRVSSSIQSTNLHWYQQKPGQSPRPLIYGTSTLATGVPVRFSGSGSGTDYTLTISRLEPEDFAVYYCQQWSSYPLYTFGGGTKVEIK
How did the Kd [1] turn out when B1 was run?
Its Kd is 96 nM.

B2: H1L1 (antibody, V domains shown)
VH: B1 VH with P30S, R32Y
VL: B1 VL with Q30S, T32S, T54N, T57S
How did the Kd [1] turn out when B2 was run?
The Kd was 1000 nM.

B3: H1_L1.71 (antibody, V domains shown)
VH: B1 VH with P30S, R32Y
VL: B1 VL
With B3 as the binder, how does the Kd [1] read?
Its Kd is 180 nM.

B4: H1.1_L1 (antibody, V domains shown)
VH: B1 VH
VL: B1 VL with Q30S, T32S, T54N, T57S
For B4, which Kd [1] is on record?
Its Kd is 600 nM.

B5: PDL2 (ligand)
chain: LFTVTVPKELYIIEHGSNVTLECNFDTGSHVNLGAITASLQKVENDTSPHRERATLLEEQLPLGKASFHIPQVQVRDEGQYQCIIIYGVAWDYKYLTLKVKASYRKINTHILKVPETDEVELTCQATGYPLAEVSWPNVSVPANTSHSRTPEGLYQVTSVLRLKPPPGRNFSCVFWNTHVRELTLASIDLQSQMEPRTHPT
For B5, which Kd [2] is on record?
Its Kd is 5.87 nM.

And the Kd [3]?
The Kd was 21.8 nM.

What about the Kd [4] of the same binder?
Its Kd is 15.1 nM.

And the Kd [5]?
Its Kd is 0.39 nM.

And the Kd [6]?
Its Kd is 64.9 nM.

And the Kd [7]?
Its Kd is 1.09 nM.

What about the Kd [8] of the same binder?
The Kd was 6.02 nM.

What about the Kd [9] of the same binder?
Its Kd is 0.525 nM.

What about the Kd [10] of the same binder?
The Kd was 5.66 nM.

What about the Kd [11] of the same binder?
Its Kd is 5.1 nM.

What about the Kd [12] of the same binder?
The Kd was 0.765 nM.

And the Kd [13]?
The Kd was 5.88 nM.

And the Kd [14]?
The Kd was 1.77 nM.

And the Kd [15]?
Its Kd is 73.2 nM.

And the Kd [16]?
Its Kd is 73.7 nM.

And the Kd [17]?
The Kd was 11.6 nM.

What about the Kd [18] of the same binder?
Its Kd is 3.75 nM.

And the Kd [19]?
Its Kd is 7.13 nM.

What about the Kd [20] of the same binder?
Its Kd is 303 nM.

What about the Kd [21] of the same binder?
Its Kd is 192 nM.

What about the Kd [22] of the same binder?
Its Kd is 1.77 nM.

What about the Kd [23] of the same binder?
Its Kd is 0.25 nM.

And the Kd [24]?
Its Kd is 80.7 nM.

And the Kd [25]?
Its Kd is 12.5 nM.

What about the Kd [26] of the same binder?
The Kd was 0.491 nM.

What about the Kd [27] of the same binder?
Its Kd is 8.44 nM.

What about the Kd [28] of the same binder?
The Kd was 1.49 nM.

B6: XENP 37559 (H1L1) (bispecific antibody)
chain 1: EVQLLESGGGLVQPGGSLRLSCAASGFTFSSYDMSWVRQAPGKRLEWVSTISSGGSFTHYPDSVKGRFTISRDNSKNTLYLQMNSLRAEDTAVYYCVRRSGDWYFDVWGAGTTVTVSSASTKGPSVFPLAPSSKSTSGGTAALGCLVKDYFPEPVTVSWNSGALTSGVHTFPAVLQSSGLYSLSSVVTVPSSSLGTQTYICNVNHKPSDTKVDKKVEPKSCDKTHTCPPCPAPPVAGPSVFLFPPKPKDTLMISRTPEVTCVVVDVKHEDPEVKFNWYVDGVEVHNAKTKPREEEYNSTYRVVSVLTVLHQDWLNGKEYKCKVSNKALPAPIEKTISKAKGQPREPQVYTLPPSREEMTKNQVSLTCDVSGFYPSDIAVEWESDGQPENNYKTTPPVLDSDGSFFLYSKLTVDKSRWEQGDVFSCSVMHEALHNHYTQKSLSLSPGK
chain 2: not shown
chain 3: EIVLTQSPGTLSLSPGERATLSCRVSSSISSSNLHWYQQKPGQSPRPLIYGTSNLASGVPVRFSGSGSGTDYTLTISRLEPEDFAVYYCQQWSSYPLYTFGGGTKVEIKRTVAAPSVFIFPPSDEQLKSGTASVVCLLNNFYPREAKVQWKVDNALQSGNSQESVTEQDSKDSTYSLSSTLTLSKADYEKHKVYACEVTHQGLSSPVTKSFNRGEC
B6 was tested. Which Kd [29] did it give?
The Kd was 2.2 nM.

And the Kd [30]?
The Kd was 2.6 nM.
